Reference: patent publication US20200255494A1

Molecular target: anti-HA1H TCR expressed on SupT1 cells
Test: cell-based or functional assay

Substance	EC50 for HA1H peptide (pulsing concentration) in killing of SupT1 anti-HA1H TCR target cells, 48 h co-culture, 2:1 effector to target, flow cytometry [nM]
MHC I CAR with β2m-41BBz: HLA-A02 / β2m-41BBz chimeric construct loaded with recombinant HA1H peptide, on transduced PBMC CAR-T cells (from UniProt P61769 21-119; P20963 31-51; Q07011 214-255; P20963 52-163) (peptide-MHC)	100
MHC I CAR with β2m-CD3z: HLA-A02 / β2m-CD3z chimeric construct loaded with recombinant HA1H peptide, on transduced PBMC CAR-T cells (from UniProt P61769 21-119; P20963 31-51; P20963 52-163) (peptide-MHC)	500
